Results on 1 substance are retold here after paper doi:10.1101/2020.06.12.149468.

By stoichiometry N is commonly meant a count of units in the complex or per binding partner.

This experiment deals with DesC, NADH-dependent 20α-hydroxysteroid dehydrogenase of Clostridium scindens ATCC 35704 (Clostridium scindens ATCC 35704). Kind of experiment: crystal structure.

The substance “DesC, NADH-dependent 20α-hydroxysteroid dehydrogenase of Clostridium scindens ATCC 35704 (enzyme)” gave a stoichiometry N of 4.
